B1: IFNγ: inflammatory cytokine of the tested panel (protein, UniProt P01579 24-161, looked up)
Interferon gamma: QDPYVKEAENLKKYFNAGHSDVADNGTLFLGILKNWKEESDRKIMQSQIVSFYFKLFKNFKDDQSIQKSVETIKEDMNVKFFNSNKKKRDDFEKLTNYSVTDLNVQRKAIHELIQVMAELSPAAKTGKRKRSQMLFRG
B2: IL-1α: inflammatory cytokine of the tested panel (protein, UniProt P01583 113-271, looked up)
Interleukin-1 alpha: SAPFSFLSNVKYNFMRIIKYEFILNDALNQSIIRANDQYLTAAALHNLDEAVKFDMGAYKSSKDDAKITVILRISKTQLYVTAQDEDQPVLLKEMPEIPKTITGSETNLLFFWETHGTKNYFTSVAHPNLFIATKQDYWVCLAGGPPSITDFQILENQA
B3: TRAIL: inflammatory cytokine of the tested panel (protein, UniProt P50591 1-281, looked up)
Tumor necrosis factor ligand …: MAMMEVQGGPSLGQTCVLIVIFTVLLQSLCVAVTYVYFTNELKQMQDKYSKSGIACFLKEDDSYWDPNDEESMNSPCWQVKWQLRQLVRKMILRTSEETISTVQEKQQNISPLVRERGPQRVAAHITGTRGRSNTLSSPNSKNEKALGRKINSWESSRSGHSFLSNLHLRNGELVIHEKGFYYIYSQTYFRFQEEIKENTKNDKQMVQYIYKYTSYPDPILLMKSARNSCWSKDAEYGLYSIYQGGIFELKENDRIFVSVTNEHLIDMDHEASFFGAFLVG

Tested on: ADAR1 KO FLAG-ZBP1 MEFs
Assay: Cytokine-induced ZBP1-dependent cell death in ADAR1-deficient MEFs
Format: cell-based, murine
Conditions: cytokines 100 ng/mL, viability at 48 hours
From the text: Immortalized Zbp1^−/− stably reconstituted with FLAG-ZBP1 MEFs were transiently transfected with TrueGuide Synthetic sgRNA against mouse Adar1 (ThermoFisher Scientific, CRISPR162007 SGM) and TrueCut Cas9 Protein (ThermoFisher Scientific, A36499) by Lipofectamine CRISPRMAX Cas9 Transfection Reagent (ThermoFisher Scientific, CMAX00008). After two days, cells were harvest and examined ADAR1 protein level by western blot.

| Molecule | ZBP1-dependent cell death in ADAR1-deficient MEFs |
| --- | --- |
| TNFα | not |
| B1 | induced ZBP1-dependent cell death |
| B2 | not |
| B3 | not |

From US20260000643A1, “Combination Of Curaxins And Immune Checkpoint Inhibitors For Treating Cancer” (Institute For Cancer Research d/b/a The Research Institute …, priority 2022, published 2026)
